Target: hnRNP K full-length (463 aa) (UniProt P61978 P61978:1-463)
Assay: competition; 2R competes hnRNP K binding to TAK1 fragments 3, 5.1 and Akt2 fragments 1, 2
Settings: tags: His
Method: To analyze whether recombinant hnRNP K directly interacts with the Akt2 mRNA 3′UTR, UV-crosslinking experiments were performed with the [³²P]-labeled Akt2 mRNA 3′UTR subdivided in two fragments (1 and 2) (FIG. 19, lanes 1-5 and 6-10). Recombinant hnRNP K was bound strongly to both fragments (FIG. 19, lanes 1 and 6) and to the DICE, but not to the TAK1 mRNA 3′UTR fragment 4 that served as negative control (FIG. 19, lanes 11 and 12). Furthermore, it was investigated whether the short RNA consisting of 2 repeats of the DICE (2R) can be used to compete the binding of hnRNP K to the Akt2 mRNA 3′UTR fragments 1 and 2.

B1: 2R (two DICE repeats, 38 nt) (ssRNA)
RNA: CCCCACCCUCUUCCCCAAGCCCCACCCUCUUCCCCAAG
B1: binds.
